According to the domain aggregation screens of Martell et al. (2025):

Experiment: soluble fraction after stress (log2 fold change); higher = more stays soluble; pooled small domains, quantitative proteomics
Conditions: stress: pH 4
How it was run: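 After pH 4 stress, pooled custom libraries of small protein domains were quantified with high-throughput quantitative proteomics. Aggregation propensity is taken from the fold change in each domain's soluble amount following the acid stress. The scale is log2, where higher values mean more stayed soluble.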
With “HMSLPQSKDAVITILRTLPQLDTRAPEVYKLLGPHALDIILEDPEQVAKKINHVGVATAKLWQQALLGFK” the “soluble fraction (log2)” value was 0.198. In the case of “HMSLQDYYQVLGVFYNAGDKEIKRRWKELINQYHPDLAQAKGASPEEIENYTLKMAEINNAYEQIMKSRKA”, the “soluble fraction (log2)” value is reported as 0.0253. For “HMSLSASELDQLRMMTKVSHMYHTRGMVQIDIARSLGLSQARVSRLLSAAEDANIVRTVVVA”, the “soluble fraction (log2)” value was -0.177. With “HMSLTAQVFTDRGKVLLSENKFTEAIDQFTKALAMDKVYIEALNRRIEAYQHLGLTELAAKDEALLGTL” the “soluble fraction (log2)” value was -1.01. For “HMSLTPSQDANRSAILDAARDLFARYGFKKTTMEDIAMALRKGKSSLYYYFKNKEDIFQAVIDS”, the “soluble fraction (log2)” value was -0.0869. For “HMSMDAVSLANRLLRFFQKRPGRKFTAADLAFETGMNERTGKSLVTSALEILSRTNQIEADGDGFRLKM”, the “soluble fraction (log2)” value was 0.243. With “HMSMEIQEIIRQLREKNDWSQEDMAERVGLSKNGYAKIERGETNLNLERLEQIANLFDLSVIDLIEMS” the “soluble fraction (log2)” value was -1.03. With “HMSMEKNWVPSEDVIEILTRAGMNENFIRELIPEFIIYWSERKDVLISYDSKFIEHARLKWAQHNAE” the “soluble fraction (log2)” value was 0.0608. In the case of “HMSMFTPAQVAQTLTVPPSTLRRWAKRFAPFLSPQSGKKRTYTVADLDTFQRIKELSAQGYTFAQIDQAL”, the “soluble fraction (log2)” value is reported as -0.101. For “HMSMLSQERQSLILDIIKEQGSVTVTRLTEILQSSESTVRRDLSYLASKGKINKVHGGATALG”, the “soluble fraction (log2)” value was -0.306. With “HMSMNGNMIHATVIWKGRYFLVKMFFPQLTKPKRAEVQAQIEKAYPGSRVASYHITDYKPGEQFLHV” the “soluble fraction (log2)” value was -0.156. In the case of “HMSMPEVLSDRELEIFRMIGTGMSTGDIAKKLNISVNTIESHRKKIKDKLGIQKGSELVKAAVQWVSTQQ”, the “soluble fraction (log2)” value is reported as -0.219. With “HMSMSVLFSELDQKDAGVIVEKLKERKIPYELQSGGSAIMVPANVLHETRLQLAAEGLPQSS” the “soluble fraction (log2)” value was 0.0876. In the case of “HMSMTVHGALRLLQLPTIADRPYTLKEIREAYREQAQNHHPDAGGSADAMRRLNEAYQFLKERYRQA”, the “soluble fraction (log2)” value is reported as -0.0331. With “HMSNEKVVKFAQELLVDEERSAISPALISAKIDQVLMFKPAWNEGLDRDAVVNELVRRFSIW” the “soluble fraction (log2)” value was -1.19. In the case of “HMSNGFFELKTSQQDELIDLIDSHTNFVRTKIEGELITAFLKLPMDAEEFNKLLFTNGIILSHLVKRK”, the “soluble fraction (log2)” value is reported as -1.07. In the case of “HMSNIIGNTAYSAIPDKQYFRLKSETAEKVANYLTENNIPFSGRINGDKTTLTIGQKNVDDYKAAVATVTG”, the “soluble fraction (log2)” value is reported as 0.304. In the case of “HMSNIVNYEVYVYQNDAWDLLARYPSEKRAEAIEYAKSTEFSLNRPTKVIRETYDLDTQKFQEALIYLSE”, the “soluble fraction (log2)” value is reported as -0.304. With “HMSNLNHSFQYKKNIGRKISLTYLGRDNESISKIYELIDSNDSGILVKNKNVEIFIHYEKIVSAKIKVS” the “soluble fraction (log2)” value was -0.213. For “HMSNLTDLVSAKEAEVYLHFLESGSTAGMTEAELRAVRKIEELIQSNKIDYNGILRIRNETVK”, the “soluble fraction (log2)” value was -0.137. In the case of “HMSNNLAYSQFLDRVKNKEIRKVEIRGQSIVGYTSNNETFKTYAPLNDPKMYDELLTNDVQVQVDPP”, the “soluble fraction (log2)” value is reported as 0.0357. With “HMSNQLAVPDVTNMKANAAADRLRQQGLRVELKTESSNTVPRGMAIRTDPAASTMVARGGRVTLIISSGKG” the “soluble fraction (log2)” value was -0.0724. For “HMSNSGFVKNNGKTEFYDASGRQAKSSWINISGKWYYFDLNGTMVTGWQRISNKWYYFLEDGSK”, the “soluble fraction (log2)” value was 0.342. For “HMSNSMISKDKAMSIALAKVSGATSSNIYIELEKDDGRYTYEGEINFNNKEYEFEIDAYTGNILKWEVDSI”, the “soluble fraction (log2)” value was -0.0257. In the case of “HMSNTPHSREVLLEMDAVRRLLAVGEEKGEVDRADLQGAFEEAELGRGDLDGVLSILREYDVPLAR”, the “soluble fraction (log2)” value is reported as -0.15. For “HMSNVIYFNYNDYKFLFMGDAGVDKETDILEKYTLSNIDFLKVGHHGSDTSSNKGFIDSIQPKYSLIS”, the “soluble fraction (log2)” value was -1.42. With “HMSNWTILIIQGSAHLIDLDSKITEIDGFGSFPTKILQDYNLNEEFEIFDTNVKMVNSVQSDLQSN” the “soluble fraction (log2)” value was -1.97. In the case of “HMSNYIVELSSSEKIDDIDNNNNLINSFFSKSDSQWEYKLVFKNKNEMDVFVKKISTNNKIISYKTSS”, the “soluble fraction (log2)” value is reported as -0.106. With “HMSPAETGIYHILVENGKPNRHGLDATNKNENWLRQFLITQNTRLEDVFLLLADDGGGIRFFKSQ” the “soluble fraction (log2)” value was -0.658. For “HMSPAPVSVDHLAFPTRDLEATDHFYSKVVGATLVHAESGYSPSWKSDYLLITYALPDGTRLSFFDWP”, the “soluble fraction (log2)” value was -0.133. In the case of “HMSPDTREAILAAARTAFARDGYQTSLRGIARDAGVDPALVHHYFPDRATLFAKAVIESTAG”, the “soluble fraction (log2)” value is reported as -0.047. For “HMSPFAHHLHELRMRHGIRQNELAELIGYDQTYISALEVGLKGPPTPEFVDKLVEGLALSRTEEAALRSAA”, the “soluble fraction (log2)” value was -0.562. With “HMSPFYALDEVDSFLDGVNVERLAALIARQAEQAQFLVVSHRRPMIGASTRTIGVTQARGAHTQVVGLP” the “soluble fraction (log2)” value was -0.872. For “HMSPGAKIEVTGNTVNLRAGPGTNYDTRGQVKKGEQLPLLGEQGGWYRVQTSRGVAYLAGWLARVLT”, the “soluble fraction (log2)” value was -0.0378. For “HMSPLDSHLGRRIALRRQQLNTSAADLEKAISMVPGSVARFEAGRQSLNATQLFTLSRALDVPVLYFFEG”, the “soluble fraction (log2)” value was -0.418. For “HMSPREDQQSRKQHILEAAAVLFAERGYYKTTTADVARAVGVTQPYVFHFFKSKEELYLAVL”, the “soluble fraction (log2)” value was 0.219. In the case of “HMSPSDLSAEAQKVYALLDGRELSFDTLVEESGFDTGSLLAILMRLEMKMLVEHGADQVYRRSG”, the “soluble fraction (log2)” value is reported as -0.98. In the case of “HMSPVKAPLPGVVLDIHVSVGQEVKASDTVVTLEAMKMENAIKAGVDGKVASISVGKGDSVLEGAVLLTI”, the “soluble fraction (log2)” value is reported as 0.322. For “HMSQAVTMLKAGRLLANSKGTGAAVRDLEPGMLLYPTGQKDGTMWEVEDEMGNKGWVNSTSMQLA”, the “soluble fraction (log2)” value was 0.395. With “HMSQDEKITNYIYEGNKNTQTEAFVEAEKSYRKALSLSPEKPEALYNLGNTHFLDKQYDEASQRFF” the “soluble fraction (log2)” value was -0.111. For “HMSQDINVFIKTNPENATIIWDGESKGTNGIFKSNAGAHRLRIEMQGYESIDQDIQVSDKQFSFEYNLKKE”, the “soluble fraction (log2)” value was 0.22. With “HMSQIANLLLSKNIKVNNQNIIYYETVLKYLPNNEKKEFFINAMKNNIYFTEEEIKNFGNIFN” the “soluble fraction (log2)” value was -0.786. For “HMSQIQIKLDQAIMQLPEKQRFVFMLRYFEELPYEKIAQITETSIGGAKANFHQALKKMQEIIQ”, the “soluble fraction (log2)” value was -0.397. For “HMSQKVQEDFLGDIRKNEIAVTVFLINGVKLQGVITWFDDASILLRRDGHTQLIYKHAVSTIMPGVAVDI”, the “soluble fraction (log2)” value was -0.632. In the case of “HMSQLYINATDDGWVIGNLPADAREVLLTTLGGQVVARYHVTAPSLRVKAPRKGVYIVSVETA”, the “soluble fraction (log2)” value is reported as -0.0877. For “HMSQQVVTDGVNLRLRYAPSPDAETYKWADGTNRHPEKGERFPYLGDIGDFYRIDYKGLVLYVSKQHTHL”, the “soluble fraction (log2)” value was -0.34. With “HMSQRITYTEFVQMVKDDKVEKVEVGANQYNITPKSDDKTLVKMTYYTGFIKDENLLDLLNKHKVEIDGYI” the “soluble fraction (log2)” value was 0.169. In the case of “HMSQSIGQEKALSIALADAGVQKENALGLEVKGEYDDGQLLYEVEFRAGGVEYEYEVRASDGRIVKAERD”, the “soluble fraction (log2)” value is reported as 0.0913. In the case of “HMSQSMEVLYTDLTDKDAAAIVEKLEEEKIPYQLEDQGTTILVPPGVKYTTRLKLAAEDLPKG”, the “soluble fraction (log2)” value is reported as 0.178. For “HMSQYVPDPVLNAALVGYLDFRKQAGKPMTDYSIRLLLVDLAKLSGNPQEQAAILDQSTKNNWIGVYALG”, the “soluble fraction (log2)” value was -0.326.
